Laboratory results from patent US20200087347 (published 2020).
Read-outs that look alike come from different tables or passages of the source. Side-chain parts run from the residue outwards. [ ]: non-standard residue; d: D form. NMeK = CN[C@@H](CCCCN)C(=O)O; Ahx = NCCCCCC(=O)O; BDPFL = dye

T1: integrin αvβ8 (human, UniProt P06756)
T1 chain 1: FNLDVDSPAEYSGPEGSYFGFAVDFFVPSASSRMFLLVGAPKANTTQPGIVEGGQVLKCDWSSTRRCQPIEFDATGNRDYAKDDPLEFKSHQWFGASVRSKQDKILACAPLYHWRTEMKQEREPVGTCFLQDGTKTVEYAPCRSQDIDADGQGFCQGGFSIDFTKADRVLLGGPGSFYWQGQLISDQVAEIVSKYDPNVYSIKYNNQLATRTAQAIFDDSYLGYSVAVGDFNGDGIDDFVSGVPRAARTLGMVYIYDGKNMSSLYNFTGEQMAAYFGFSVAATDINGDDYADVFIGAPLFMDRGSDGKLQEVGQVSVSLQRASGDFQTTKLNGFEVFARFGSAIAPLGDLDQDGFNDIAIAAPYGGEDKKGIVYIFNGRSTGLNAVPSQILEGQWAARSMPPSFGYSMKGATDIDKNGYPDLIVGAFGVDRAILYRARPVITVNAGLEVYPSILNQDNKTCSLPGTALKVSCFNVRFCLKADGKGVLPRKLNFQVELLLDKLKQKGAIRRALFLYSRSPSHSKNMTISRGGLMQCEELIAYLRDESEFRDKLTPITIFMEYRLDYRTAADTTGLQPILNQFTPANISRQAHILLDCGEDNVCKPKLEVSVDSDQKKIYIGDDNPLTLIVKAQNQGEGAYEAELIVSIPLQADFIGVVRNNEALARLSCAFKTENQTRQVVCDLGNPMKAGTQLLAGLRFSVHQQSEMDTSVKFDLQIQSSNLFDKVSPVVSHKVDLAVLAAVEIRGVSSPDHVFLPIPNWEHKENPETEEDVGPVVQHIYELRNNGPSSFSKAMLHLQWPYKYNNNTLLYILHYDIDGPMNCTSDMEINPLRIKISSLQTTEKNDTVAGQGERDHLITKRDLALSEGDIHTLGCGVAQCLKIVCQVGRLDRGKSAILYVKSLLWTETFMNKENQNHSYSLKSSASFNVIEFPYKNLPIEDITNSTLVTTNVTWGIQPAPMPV
T1 chain 2: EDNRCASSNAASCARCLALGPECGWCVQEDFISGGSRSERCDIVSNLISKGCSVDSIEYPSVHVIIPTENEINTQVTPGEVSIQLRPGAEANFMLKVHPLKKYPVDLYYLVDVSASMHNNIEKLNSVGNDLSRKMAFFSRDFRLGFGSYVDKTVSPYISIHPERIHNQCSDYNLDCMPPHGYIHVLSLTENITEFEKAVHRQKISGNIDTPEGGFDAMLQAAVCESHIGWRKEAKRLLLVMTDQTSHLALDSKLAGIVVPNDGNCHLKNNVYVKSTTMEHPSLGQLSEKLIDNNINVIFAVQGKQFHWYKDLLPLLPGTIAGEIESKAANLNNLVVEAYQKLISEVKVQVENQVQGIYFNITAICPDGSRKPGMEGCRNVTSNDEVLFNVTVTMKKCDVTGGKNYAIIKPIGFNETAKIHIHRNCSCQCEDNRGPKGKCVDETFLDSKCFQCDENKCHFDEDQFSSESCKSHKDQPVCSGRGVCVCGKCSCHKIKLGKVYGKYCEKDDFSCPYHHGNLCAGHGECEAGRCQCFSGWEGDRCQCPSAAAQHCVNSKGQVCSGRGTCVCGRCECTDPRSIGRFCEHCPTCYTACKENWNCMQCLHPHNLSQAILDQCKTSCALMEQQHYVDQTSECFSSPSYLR

T2: integrin αvβ3 (human, UniProt P06756)
T2 chain 1: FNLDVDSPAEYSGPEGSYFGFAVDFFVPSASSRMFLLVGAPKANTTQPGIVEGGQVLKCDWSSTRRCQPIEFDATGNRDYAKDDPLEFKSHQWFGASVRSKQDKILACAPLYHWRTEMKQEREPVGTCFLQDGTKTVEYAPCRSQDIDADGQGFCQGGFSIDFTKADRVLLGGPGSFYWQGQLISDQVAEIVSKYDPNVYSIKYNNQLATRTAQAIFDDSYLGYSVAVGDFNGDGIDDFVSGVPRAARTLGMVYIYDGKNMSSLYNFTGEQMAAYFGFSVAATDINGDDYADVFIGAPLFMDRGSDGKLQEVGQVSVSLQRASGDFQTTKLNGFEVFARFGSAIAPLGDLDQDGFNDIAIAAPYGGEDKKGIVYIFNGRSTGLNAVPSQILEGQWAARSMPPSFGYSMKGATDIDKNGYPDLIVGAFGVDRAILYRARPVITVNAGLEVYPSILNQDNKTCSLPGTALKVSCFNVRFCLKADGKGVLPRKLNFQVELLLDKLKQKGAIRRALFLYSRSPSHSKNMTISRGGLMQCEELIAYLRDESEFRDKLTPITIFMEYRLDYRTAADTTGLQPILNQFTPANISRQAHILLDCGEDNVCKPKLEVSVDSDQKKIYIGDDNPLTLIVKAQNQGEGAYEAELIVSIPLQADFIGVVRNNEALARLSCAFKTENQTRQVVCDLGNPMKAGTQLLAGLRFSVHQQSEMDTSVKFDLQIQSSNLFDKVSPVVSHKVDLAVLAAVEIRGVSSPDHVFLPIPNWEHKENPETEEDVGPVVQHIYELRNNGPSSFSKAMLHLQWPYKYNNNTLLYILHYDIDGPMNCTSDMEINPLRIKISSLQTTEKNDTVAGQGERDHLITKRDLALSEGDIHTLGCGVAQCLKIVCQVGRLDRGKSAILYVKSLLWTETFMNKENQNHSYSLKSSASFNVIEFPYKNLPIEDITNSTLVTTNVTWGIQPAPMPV
T2 chain 2: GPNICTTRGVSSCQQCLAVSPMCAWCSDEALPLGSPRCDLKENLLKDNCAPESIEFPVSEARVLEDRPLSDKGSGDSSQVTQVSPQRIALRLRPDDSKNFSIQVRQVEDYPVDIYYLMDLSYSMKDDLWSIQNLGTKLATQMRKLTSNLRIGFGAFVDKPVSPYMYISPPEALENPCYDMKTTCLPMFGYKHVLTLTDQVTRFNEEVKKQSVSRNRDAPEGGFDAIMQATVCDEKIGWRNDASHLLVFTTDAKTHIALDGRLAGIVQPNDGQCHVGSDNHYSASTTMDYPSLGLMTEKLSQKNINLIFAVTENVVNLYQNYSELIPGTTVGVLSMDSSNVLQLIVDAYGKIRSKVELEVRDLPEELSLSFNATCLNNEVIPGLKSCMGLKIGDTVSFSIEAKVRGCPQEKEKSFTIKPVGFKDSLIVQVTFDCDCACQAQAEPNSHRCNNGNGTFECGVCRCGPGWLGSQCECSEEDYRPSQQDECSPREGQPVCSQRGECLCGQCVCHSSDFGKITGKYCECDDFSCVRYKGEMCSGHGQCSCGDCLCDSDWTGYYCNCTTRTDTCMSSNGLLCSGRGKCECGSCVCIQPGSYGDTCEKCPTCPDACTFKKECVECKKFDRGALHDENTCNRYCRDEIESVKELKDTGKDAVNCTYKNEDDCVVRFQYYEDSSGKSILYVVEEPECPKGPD

T3: integrin αvβ6 (human, UniProt P06756)
T3 chain 1: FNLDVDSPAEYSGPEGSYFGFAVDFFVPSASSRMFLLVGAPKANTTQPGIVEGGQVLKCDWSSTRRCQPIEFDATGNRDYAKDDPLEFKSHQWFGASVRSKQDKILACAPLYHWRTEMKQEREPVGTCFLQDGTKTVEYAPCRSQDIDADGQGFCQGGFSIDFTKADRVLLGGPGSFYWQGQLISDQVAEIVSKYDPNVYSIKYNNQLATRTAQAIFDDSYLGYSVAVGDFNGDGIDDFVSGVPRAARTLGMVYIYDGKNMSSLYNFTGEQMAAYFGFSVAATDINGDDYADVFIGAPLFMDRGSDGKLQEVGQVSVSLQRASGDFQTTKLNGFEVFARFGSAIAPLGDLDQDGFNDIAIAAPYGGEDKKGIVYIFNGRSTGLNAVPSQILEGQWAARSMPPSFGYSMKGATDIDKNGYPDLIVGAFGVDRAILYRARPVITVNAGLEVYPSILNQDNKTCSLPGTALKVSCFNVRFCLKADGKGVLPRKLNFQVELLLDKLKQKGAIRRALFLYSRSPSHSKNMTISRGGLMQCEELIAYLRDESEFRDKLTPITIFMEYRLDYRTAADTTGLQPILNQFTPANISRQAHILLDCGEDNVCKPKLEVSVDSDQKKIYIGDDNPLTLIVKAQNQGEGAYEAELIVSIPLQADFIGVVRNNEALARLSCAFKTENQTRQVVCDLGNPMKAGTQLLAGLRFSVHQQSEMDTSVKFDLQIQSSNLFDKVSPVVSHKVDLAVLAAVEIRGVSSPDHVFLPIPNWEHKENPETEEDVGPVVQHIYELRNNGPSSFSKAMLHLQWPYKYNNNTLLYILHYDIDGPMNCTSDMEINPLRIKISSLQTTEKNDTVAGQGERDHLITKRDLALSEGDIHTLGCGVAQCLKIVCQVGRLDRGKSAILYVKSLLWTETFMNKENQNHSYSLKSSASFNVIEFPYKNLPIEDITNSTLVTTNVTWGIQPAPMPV
T3 chain 2: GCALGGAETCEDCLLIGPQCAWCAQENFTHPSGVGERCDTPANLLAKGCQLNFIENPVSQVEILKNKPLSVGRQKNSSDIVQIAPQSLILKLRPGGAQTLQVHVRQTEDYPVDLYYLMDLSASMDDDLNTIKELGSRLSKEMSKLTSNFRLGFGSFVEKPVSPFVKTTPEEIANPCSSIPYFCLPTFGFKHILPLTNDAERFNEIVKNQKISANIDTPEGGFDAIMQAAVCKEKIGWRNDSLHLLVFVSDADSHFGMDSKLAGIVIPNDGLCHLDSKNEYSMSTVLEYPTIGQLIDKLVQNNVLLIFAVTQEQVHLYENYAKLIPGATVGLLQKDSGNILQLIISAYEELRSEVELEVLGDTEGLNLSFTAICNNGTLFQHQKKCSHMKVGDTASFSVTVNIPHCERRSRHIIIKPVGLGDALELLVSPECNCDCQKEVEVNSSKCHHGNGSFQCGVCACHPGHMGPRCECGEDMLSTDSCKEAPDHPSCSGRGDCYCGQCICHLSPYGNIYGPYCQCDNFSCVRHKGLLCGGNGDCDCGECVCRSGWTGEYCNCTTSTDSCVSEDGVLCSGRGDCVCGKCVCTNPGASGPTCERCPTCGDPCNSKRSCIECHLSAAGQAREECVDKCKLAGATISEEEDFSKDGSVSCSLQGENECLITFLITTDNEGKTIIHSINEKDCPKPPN

T4: integrin αvβ5 (human, UniProt P06756)
T4 chain 1: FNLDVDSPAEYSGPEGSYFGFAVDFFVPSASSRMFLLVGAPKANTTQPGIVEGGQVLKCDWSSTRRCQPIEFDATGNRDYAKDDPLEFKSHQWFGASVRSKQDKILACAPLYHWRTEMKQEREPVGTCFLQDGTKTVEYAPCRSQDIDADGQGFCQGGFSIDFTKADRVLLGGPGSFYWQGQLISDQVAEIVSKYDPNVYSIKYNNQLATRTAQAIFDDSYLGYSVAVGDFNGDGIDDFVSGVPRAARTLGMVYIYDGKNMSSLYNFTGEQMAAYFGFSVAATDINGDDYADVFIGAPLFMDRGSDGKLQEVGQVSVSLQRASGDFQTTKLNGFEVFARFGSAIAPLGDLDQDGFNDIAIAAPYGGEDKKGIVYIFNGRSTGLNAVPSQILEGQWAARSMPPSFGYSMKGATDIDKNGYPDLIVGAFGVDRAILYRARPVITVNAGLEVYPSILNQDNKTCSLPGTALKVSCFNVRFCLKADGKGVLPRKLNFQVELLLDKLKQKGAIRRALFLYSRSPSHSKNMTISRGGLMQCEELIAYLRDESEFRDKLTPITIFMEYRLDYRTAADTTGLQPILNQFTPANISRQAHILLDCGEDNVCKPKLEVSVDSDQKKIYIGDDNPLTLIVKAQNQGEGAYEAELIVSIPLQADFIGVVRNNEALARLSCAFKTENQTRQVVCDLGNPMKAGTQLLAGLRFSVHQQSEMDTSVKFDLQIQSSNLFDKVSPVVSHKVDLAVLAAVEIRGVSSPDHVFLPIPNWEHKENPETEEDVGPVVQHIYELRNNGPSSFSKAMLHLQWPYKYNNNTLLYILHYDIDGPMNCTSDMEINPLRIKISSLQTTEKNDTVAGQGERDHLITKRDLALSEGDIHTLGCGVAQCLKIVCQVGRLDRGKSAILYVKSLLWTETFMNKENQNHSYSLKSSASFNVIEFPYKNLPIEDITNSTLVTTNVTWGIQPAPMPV
T4 chain 2: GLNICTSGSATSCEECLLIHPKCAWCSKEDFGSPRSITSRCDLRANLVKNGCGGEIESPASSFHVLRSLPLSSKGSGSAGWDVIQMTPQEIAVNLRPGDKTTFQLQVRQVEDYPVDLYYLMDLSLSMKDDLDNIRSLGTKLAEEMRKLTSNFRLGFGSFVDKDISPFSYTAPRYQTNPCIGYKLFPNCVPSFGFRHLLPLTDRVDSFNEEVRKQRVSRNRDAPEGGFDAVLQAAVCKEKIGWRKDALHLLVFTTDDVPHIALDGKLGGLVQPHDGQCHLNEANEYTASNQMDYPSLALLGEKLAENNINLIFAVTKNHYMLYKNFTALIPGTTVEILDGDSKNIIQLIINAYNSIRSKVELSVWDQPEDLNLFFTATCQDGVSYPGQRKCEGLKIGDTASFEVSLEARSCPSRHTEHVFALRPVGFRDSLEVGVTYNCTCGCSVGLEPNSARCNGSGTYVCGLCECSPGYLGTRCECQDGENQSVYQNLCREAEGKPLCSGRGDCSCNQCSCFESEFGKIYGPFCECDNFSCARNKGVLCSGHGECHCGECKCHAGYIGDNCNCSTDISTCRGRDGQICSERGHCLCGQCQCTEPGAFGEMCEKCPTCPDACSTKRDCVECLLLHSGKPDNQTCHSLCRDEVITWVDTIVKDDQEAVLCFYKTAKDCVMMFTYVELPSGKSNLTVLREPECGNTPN


Experiments:
Assay in all cases: competition
[1] = molecular target: T5, integrin α5β1 (human, UniProt P08648)
[2] = molecular target: T6, integrin αIIbβ3 (human, UniProt P08514)
[3] = molecular target: T1, integrin αvβ8
[4] = molecular target: T2, integrin αvβ3
[5] = molecular target: T3, integrin αvβ6
[6] = molecular target: T4, integrin αvβ5
[7] = molecular target: T1, integrin αvβ8
[8] = molecular target: T5, integrin α5β1; remark: listed apart in the source
[9] = molecular target: T6, integrin αIIbβ3; remark: listed apart in the source
[10] = molecular target: T4, integrin αvβ5
[11] = molecular target: T3, integrin αvβ6
[12] = molecular target: T2, integrin αvβ3

T5 sequence (P08648 42-1049, chain 1 of 2): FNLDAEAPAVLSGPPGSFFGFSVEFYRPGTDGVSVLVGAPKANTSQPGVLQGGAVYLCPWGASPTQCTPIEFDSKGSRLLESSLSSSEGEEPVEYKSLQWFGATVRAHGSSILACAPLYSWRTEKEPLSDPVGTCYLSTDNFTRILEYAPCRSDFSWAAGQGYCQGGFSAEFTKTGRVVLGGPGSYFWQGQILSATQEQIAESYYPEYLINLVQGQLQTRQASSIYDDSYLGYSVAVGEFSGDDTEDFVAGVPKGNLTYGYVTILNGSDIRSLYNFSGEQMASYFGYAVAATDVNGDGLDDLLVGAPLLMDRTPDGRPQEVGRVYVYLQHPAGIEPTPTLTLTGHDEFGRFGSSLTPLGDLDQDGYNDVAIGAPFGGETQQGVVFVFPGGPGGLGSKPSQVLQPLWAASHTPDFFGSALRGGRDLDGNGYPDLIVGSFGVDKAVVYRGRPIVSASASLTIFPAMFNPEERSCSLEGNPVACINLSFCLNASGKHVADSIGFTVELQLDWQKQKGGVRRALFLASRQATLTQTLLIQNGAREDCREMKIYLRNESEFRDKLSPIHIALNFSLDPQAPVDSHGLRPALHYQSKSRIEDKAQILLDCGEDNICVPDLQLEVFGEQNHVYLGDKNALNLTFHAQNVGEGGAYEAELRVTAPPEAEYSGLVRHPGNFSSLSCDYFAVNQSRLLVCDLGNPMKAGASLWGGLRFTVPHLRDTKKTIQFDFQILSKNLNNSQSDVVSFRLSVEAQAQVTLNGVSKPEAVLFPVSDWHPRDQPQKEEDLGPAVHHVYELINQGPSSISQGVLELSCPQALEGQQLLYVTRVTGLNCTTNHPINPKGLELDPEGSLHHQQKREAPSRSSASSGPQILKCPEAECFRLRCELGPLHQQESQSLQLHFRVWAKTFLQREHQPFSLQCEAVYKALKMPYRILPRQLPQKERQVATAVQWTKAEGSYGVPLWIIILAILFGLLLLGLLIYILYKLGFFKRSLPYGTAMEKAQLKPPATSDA
T5 sequence (chain, as listed by the source, chain 2 of 2): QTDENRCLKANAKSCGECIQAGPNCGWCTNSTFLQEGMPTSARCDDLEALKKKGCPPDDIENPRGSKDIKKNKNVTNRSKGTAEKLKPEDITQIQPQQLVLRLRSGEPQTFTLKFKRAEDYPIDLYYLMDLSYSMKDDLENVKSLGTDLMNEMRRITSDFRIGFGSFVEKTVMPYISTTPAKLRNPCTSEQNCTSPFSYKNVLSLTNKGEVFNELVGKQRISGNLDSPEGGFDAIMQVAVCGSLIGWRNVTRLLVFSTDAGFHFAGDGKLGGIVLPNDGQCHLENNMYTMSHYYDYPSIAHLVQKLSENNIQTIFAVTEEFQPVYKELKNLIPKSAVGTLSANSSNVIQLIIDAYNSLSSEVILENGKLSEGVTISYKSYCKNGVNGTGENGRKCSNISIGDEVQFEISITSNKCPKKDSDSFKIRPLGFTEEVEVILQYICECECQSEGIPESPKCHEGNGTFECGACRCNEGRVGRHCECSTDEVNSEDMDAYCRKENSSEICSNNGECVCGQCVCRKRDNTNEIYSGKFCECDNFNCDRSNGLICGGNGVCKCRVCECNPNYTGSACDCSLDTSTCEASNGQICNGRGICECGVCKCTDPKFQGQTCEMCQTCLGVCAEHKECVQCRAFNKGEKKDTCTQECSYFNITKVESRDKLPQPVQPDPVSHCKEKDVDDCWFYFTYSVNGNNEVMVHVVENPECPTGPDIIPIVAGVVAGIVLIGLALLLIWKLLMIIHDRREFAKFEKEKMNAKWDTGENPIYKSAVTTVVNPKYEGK

Binder	IC50 [1]	IC50 [2]	IC50 [3]	IC50 [4]	IC50 [5]	IC50 [6]	IC50 [7]	IC50 [8]	IC50 [9]	IC50 [10]	IC50 [11]	IC50 [12]
cyclo(RGDL[dP][NMeK](Ac)GL) [Compound 9]	> 1000 nM	> 1000 nM	6 nM	423 nM	201 nM	> 1000 nM	–	–	–	–	–	–
cyclo(RGDL[dP][NMeK]([Ahx-BDPFL])GL) [Compound 9b (9-Ahx-BDPFL)]	–	–	–	–	–	–	0.87 nM	> 1000 nM	> 1000 nM	> 10000 nM	55 nM	239 nM
